Reference: the supplement of paper PMC11246515
± gives the standard deviation of the averaged measurements.

Assay: total protein half-life in vivo (active degradation + dilution); higher = more stable protein
[1] = E. coli NCM3722 delta-clpP delta-lon delta-hslV, growth: N-lim chemostat, doubling time 6 h
[2] = E. coli NCM3722 delta-clpP, growth: N-lim chemostat, doubling time 6 h
[3] = E. coli NCM3722 delta-hslV, growth: N-lim chemostat, doubling time 6 h
[4] = E. coli NCM3722 delta-lon, growth: N-lim chemostat, doubling time 6 h
[5] = E. coli NCM3722 delta-smpB, growth: N-lim chemostat, doubling time 6 h
[6] = wild type E. coli NCM3722, growth: C-lim chemostat, doubling time 3 h
[7] = wild type E. coli NCM3722, growth: C-lim chemostat, doubling time 6 h
[8] = wild type E. coli NCM3722, growth: C-lim chemostat, doubling time 12 h
[9] = wild type E. coli NCM3722, growth: N-lim chemostat, doubling time 6 h
[10] = wild type E. coli NCM3722, growth: N-lim chemostat, doubling time 12 h
[11] = wild type E. coli NCM3722, growth: P-lim chemostat, doubling time 6 h
[12] = wild type E. coli NCM3722, growth: P-lim chemostat, doubling time 12 h

MSEKLQKVLARAGHGSRREIESIIEAGRVSVDGKIAKLGDRVEVTPGLKIRIDGHLISVRESAEQICRVLAYYKPEGELCTRNDPEGRPTVFDRLPKLRGARWIAVGRLDVNTCGLLLFTTDGELANRLMHPSREVEREYAVRVFGQVDDAKLRDLSRGVQLEDGPAAFKTIKFSGGEGINQWYNVTLTEGRNREVRRLWEAVGVQVSRLIRVRYGDIPLPKGLPRGGWTELDLAQTNYLRELVELPPETSSKVAVEKDRRRMKANQIRRAVKRHSQVSGGRRSGGRNNNG
total protein half-life in vivo [1]: 6.28 ± 0.59 h
total protein half-life in vivo [2]: 5.65 ± 1.1 h
total protein half-life in vivo [3]: 6.02 ± 0.61 h
total protein half-life in vivo [4]: 5.92 ± 0.38 h
total protein half-life in vivo [5]: 4.94 ± 0.081 h
total protein half-life in vivo [6]: 2.92 ± 0.27 h
total protein half-life in vivo [7]: 5.79 ± 0.66 h
total protein half-life in vivo [8]: 10.4 ± 2.1 h
total protein half-life in vivo [9]: 6.18 ± 1.5 h
total protein half-life in vivo [10]: 9.66 ± 0.21 h
total protein half-life in vivo [11]: 5.43 ± 0.43 h
total protein half-life in vivo [12]: 10.6 ± 0.17 h

MSEKPLTKTDYLMRLRRCQTIDTLERVIEKNKYELSDNELAVFYSAADHRLAELTMNKLYDKIPSSVWKFIR [P0ACE3]
total protein half-life in vivo [1]: 2.93 h
total protein half-life in vivo [7]: 1.69 ± 0.43 h
total protein half-life in vivo [8]: 0.865 h

MSEKTFLVEIGTEELPPKALRSLAESFAANFTAELDNAGLAHGTVQWFAAPRRLALKVANLAEAQPDREIEKRGPAIAQAFDAEGKPSKAAEGWARGCGITVDQAERLTTDKGEWLLYRAHVKGESTEALLPNMVATSLAKLPIPKLMRWGASDVHFVRPVHTVTLLLGDKVIPATILGIQSDRVIRGHRFMGEPEFTIDNADQYPEILRERGKVIADYEERKAKIKADAEEAARKIGGNADLSESLLEEVASLVEWPVVLTAKFEEKFLAVPAEALVYTMKGDQKYFPVYANDGKLLPNFIFVANIESKDPQQIISGNEKVVRPRLADAEFFFNTDRKKRLEDNLPRLQTVLFQQQLGTLRDKTDRIQALAGWIAEQIGADVNHATRAGLLSKCDLMTNMVFEFTDTQGVMGMHYARHDGEAEDVAVALNEQYQPRFAGDDLPSNPVACALAIADKMDTLAGIFGIGQHPKGDKDPFALRRAALGVLRIIVEKNLNLDLQTLTEEAVRLYGDKLTNANVVDDVIDFMLGRFRAWYQDEGYTVDTIQAVLARRPTRPADFDARMKAVSHFRTLDAAAALAAANKRVSNILAKSDEVLSDRVNASTLKEPEEIKLAMQVVVLRDKLEPYFTEGRYQDALVELAELREPVDAFFDKVMVMVDDKELRINRLTMLEKLRELFLRVADISLLQ
total protein half-life in vivo [1]: 6.02 ± 0.36 h
total protein half-life in vivo [2]: 6.28 ± 0.94 h
total protein half-life in vivo [3]: 5.56 ± 0.53 h
total protein half-life in vivo [4]: 5.82 ± 0.65 h
total protein half-life in vivo [5]: 5.74 ± 0.6 h
total protein half-life in vivo [6]: 3.278 ± 0.0052 h
total protein half-life in vivo [7]: 5.89 ± 0.085 h
total protein half-life in vivo [8]: 11 ± 1 h
total protein half-life in vivo [9]: 5.72 ± 0.31 h
total protein half-life in vivo [10]: 10.5 ± 0.11 h
total protein half-life in vivo [11]: 6.31 ± 0.44 h
total protein half-life in vivo [12]: 12.2 ± 1.2 h

MSELNDLLTTRELQRWRLILGEAAETTLCGLDDNARQIDHALEWLYGRDPERLQRGERSGGLGGSNLTTPEWINSIHTLFPQQVIERLESDAVLRYGIEDVVTNLDVLERMQPSESLLRAVLHTKHLMNPEVLAAARRIVCQVVEEIMARLAKEVRQAFSGVRDRRRRSFIPLARNFDFKSTLRANLQHWHPQHGKLYIESPRFNSRIKRQSEQWQLVLLVDQSGSMVDSVIHSAVMAACLWQLPGIRTHLVAFDTSVVDLTADVADPVELLMKVQLGGGTNIASAVEYGRQLIEQPAKSVIILVSDFYEGGSSSLLTHQVKKCVQSGIKVLGLAALDSTATPCYDRDTAQALVNVGAQIAAMTPGELASWLAENLQS
total protein half-life in vivo [8]: 12.9 h
total protein half-life in vivo [10]: 8.61 h
total protein half-life in vivo [11]: 6.39 h

MSEQLVTPENVTTKDGKINLLDLNRQQMREFFKDLGEKPFRADQVMKWMYHYCCDNFDEMTDINKVLRGKLKEVAEIRAPEVVEEQRSSDGTIKWAIAVGDQRVETVYIPEDDRATLCVSSQVGCALECKFCSTAQQGFNRNLRVSEIIGQVWRAAKIVGAAKVTGQRPITNVVMMGMGEPLLNLNNVVPAMEIMLDDFGFGLSKRRVTLSTSGVVPALDKLGDMIDVALAISLHAPNDEIRDEIVPINKKYNIETFLAAVRRYLEKSNANQGRVTIEYVMLDHVNDGTEHAHQLAELLKDTPCKINLIPWNPFPGAPYGRSSNSRIDRFSKVLMSYGFTTIVRKTRGDDIDAACGQLAGDVIDRTKRTLRKRMQGEAIDIKAV
total protein half-life in vivo [1]: 4.37 ± 0.19 h
total protein half-life in vivo [2]: 2.76 ± 0.77 h
total protein half-life in vivo [3]: 1.13 ± 0.07 h
total protein half-life in vivo [4]: 1.57 ± 0.14 h
total protein half-life in vivo [5]: 1.15 ± 0.025 h
total protein half-life in vivo [6]: 1.35 ± 0.022 h
total protein half-life in vivo [7]: 1.89 ± 0.12 h
total protein half-life in vivo [8]: 2.442 ± 0.024 h
total protein half-life in vivo [9]: 1.31 ± 0.027 h
total protein half-life in vivo [10]: 1.88 ± 0.24 h
total protein half-life in vivo [11]: 1.78 ± 0.32 h
total protein half-life in vivo [12]: 2.3 ± 0.26 h

MSESAFKDCFLTDVSADTRLFHFLARDYIVQEGQQPSWLFYLTRGRARLYATLANGRVSLIDFFAAPCFIGEIELIDKDHEPRAVQAIEECWCLALPMKHYRPLLLNDTLFLRKLCVTLSHKNYRNIVSLTQNQSFPLVNRLAAFILLSQEGDLYHEKHTQAAEYLGVSYRHLLYVLAQFIHDGLLIKSKKGYLIKNRKQLSGLALEMDPENKFSGMMQ [P0A9E9]
total protein half-life in vivo [6]: 1.56 h
total protein half-life in vivo [8]: 2.53 h

MSESLHLTRNGSILEITLDRPKANAIDAKTSFEMGEVFLNFRDDPQLRVAIITGAGEKFFSAGWDLKAAAEGEAPDADFGPGGFAGLTEIFNLDKPVIAAVNGYAFGGGFELALAADFIVCADNASFALPEAKLGIVPDSGGVLRLPKILPPAIVNEMVMTGRRMGAEEALRWGIVNRVVSQAELMDNARELAQQLVNSAPLAIAALKEIYRTTSEMPVEEAYRYIRSGVLKHYPSVLHSEDAIEGPLAFAEKRDPVWKGR
total protein half-life in vivo [5]: 3.5 h
total protein half-life in vivo [6]: 2.96 ± 0.038 h
total protein half-life in vivo [7]: 4.96 ± 0.18 h
total protein half-life in vivo [8]: 8.84 ± 0.32 h
total protein half-life in vivo [10]: 5.66 h
total protein half-life in vivo [11]: 5.25 ± 0.44 h
total protein half-life in vivo [12]: 10.5 ± 0.97 h

MSESLSWMQTGDTLALSGELDQDVLLPLWEMREEAVKGITCIDLSRVSRVDTGGLALLLHLIDLAKKQGNNVTLQGVNDKVYTLAKLYNLPADVLPR
total protein half-life in vivo [1]: 6.59 ± 0.72 h
total protein half-life in vivo [3]: 6.39 ± 0.34 h
total protein half-life in vivo [4]: 5.57 ± 0.6 h
total protein half-life in vivo [5]: 5.75 ± 0.51 h
total protein half-life in vivo [6]: 2.98 ± 0.28 h
total protein half-life in vivo [7]: 5.387 ± 0.018 h
total protein half-life in vivo [8]: 10.9 ± 4.8 h
total protein half-life in vivo [9]: 4.86 ± 0.53 h
total protein half-life in vivo [10]: 10.2 h
total protein half-life in vivo [11]: 5.332 ± 0.016 h
total protein half-life in vivo [12]: 11.9 ± 0.66 h

MSESVQSNSAVLVHFTLKLDDGTTAESTRNNGKPALFRLGDASLSEGLEQHLLGLKVGDKTTFSLEPDAAFGVPSPDLIQYFSRREFMDAGEPEIGAIMLFTAMDGSEMPGVIREINGDSITVDFNHPLAGQTVHFDIEVLEIDPALEA [P0AEM0]
total protein half-life in vivo [1]: 4.8 h
total protein half-life in vivo [2]: 4.79 h
total protein half-life in vivo [4]: 5.05 h
total protein half-life in vivo [5]: 3.85 ± 0.14 h
total protein half-life in vivo [6]: 2.84 h
total protein half-life in vivo [7]: 4.78 ± 0.094 h
total protein half-life in vivo [8]: 9.21 ± 1.6 h
total protein half-life in vivo [9]: 4.44 h
total protein half-life in vivo [10]: 5.91 h
total protein half-life in vivo [11]: 5.49 ± 0.13 h
total protein half-life in vivo [12]: 11.6 h
